Experimental findings from patent publication US20220241369A1, “COMPOSITIONS AND METHODS OF MODULATING INFLAMMATION” (La Jolla Institute for Allergy and Immunology, priority 2018, published 2022) are described below.

Assay [1] relates to IgE+ mMCP-1+ mast cells. Put plainly: Localization of gavaged HRF inhibitors in jejunum by confocal microscopy. It is filed as in vivo, mouse. Particulars: using anti-His tag, data not shown. Here is the method:
HRF multimers in the jejunum of non-sensitized/OVA challenged (Cont, n=6) or OVA-sensitized/OVA-challenged (OVA, n=5) mice were quantified by a newly developed ELISA (FIG. 3A, FIG. 3C). HRF was also measured by ELISA (FIG. 3B). HRF dimer and monomer were quantified by western blotting in control (Cont) and food allergic mice treated without (OVA) or with GST (GST) or GST-N19 (N19) (n=5 for each group) (FIG. 3D). Allergic diarrhea was induced by 6 challenges. On the day of 7th challenge, the mice were gavaged with 0.1 mg of GST or GST-N19 (FIG. 3E). One hour later, mice were sacrificed without OVA challenge. Jejunum tissues were stained for GST, IgE, and mMCP-1 before confocal microscopy (n=5 for GST and n=6 for GST-N19). Arrows indicate cells positive for GST or GST-N19 as well as IgE and mMCP-1. […] Bars=50 μm.
Jejunum biopsy was fixed in 4% paraformaldehyde at 4° C., washed in 10-20% sucrose in phosphate buffered saline, and embedded in O.C.T. compound (Sakura Finetek, Japan). Cyrosections were made in 6 μm and blocked with 2% skim milk. Immunostaining was performed with anti-HRF (rabbit polyclonal FL-172), anti-GST (rabbit polyclonal Z-5) (Santa Cruz Biotechnology), anti-IgE (clone RME-1 from Biolegend and clone R35-72 from BD Biosciences), anti-mMCP1 (Catalog #AF5146, R&D Systems), anti-CD45 (clone 30-F11), anti-CD63 (clone NVG-2) (Biolegend), and anti-Siglec F (clone E50-2440, BD Biosciences) as primary antibodies, and anti-Rabbit Alexa Fluor 647 (Catalog #A21245), anti-Rat Alexa Fluor 568 (Catalog #A11077), and anti-Sheep Alexa Fluor 555 (Catalog #A11015) (Thermo Fisher Scientific) as secondary antibodies. Coverslips were mounted with Prolong Gold with DAPI (Thermo Fisher Scientific) and fluorescence was observed under Leica TCS SP2 confocal microscopy (Leica) and Nuance Multi spectral Imaging System (PerkinElmer).
Applicant next tested whether HRF inhibitors target mucosal mast cells. To this end, mice with allergic diarrhea were i.g. gavaged with GST-N19 or GST, and their location was identified 1 h after their gavage.

Assay [2] has as its system sensitization phase of murine food allergy. Put plainly: Pretreatment with HRF inhibitor before sensitization with OVA plus alum. It is filed as in vivo, mouse. Conditions: 100 μg i.g. one day before i.p. immunization on days 0 and 14. Here is the method: Mice were i.g. pretreated with 100 μg of GST, GST-N19, HRF-2CA or PBS (OVA) one day before i.p. immunization with OVA plus alum on days 0 and 14. From day 28, mice were i.g. challenged with OVA three times a week. (FIG. 9A) Procedure scheme. (FIG. 9B) The development of diarrhea was monitored after OVA challenge. (n=5 for OVA, n=4 for GST, n=5 for N19, n=5 for 2CA, and n=3 each for unsensitized pretreated groups (not shown)). (FIG. 9C, FIG. 9D) Total IgE and IgG1 were measured by ELISA.
Whether HRF inhibitors affect the sensitization phase of food allergy was tested.

The subject of assay [3] is c-Kit+ mucosal mast cells of the small intestine. Put plainly: Ex vivo mast cell activation test (MCAT). It is filed as cell-based, mouse. Conditions: cells from allergic mice, HRF-2CA 300 μg/ml. The protocol: FIGS. 2A-2C show mucosal mast cells can be activated ex vivo by antigen. Cells were released with EDTA from small intestines of non-sensitized/OVA challenged (Cont) or OVA-sensitized/OVA-challenged (OVA) mice, and mononuclear cells were selected. The cells were incubated for 15 min at 37° C. with OVA or anti-IgE antibody, and activation of Kit^+ mast cells was measured by flow cytometry (FIG. 2A, FIG. 2B). **, ***: p<0.01, p<0.001 by Student's t-test. (n=2; a representative of 2 independent experiments) (FIG. 2C) Mucosal cells derived from OVA-sensitized/OVA-challenged mice were stimulated with PBS (n=4), OVA (10 ng/ml, n=4) or HRF dimer (100 μg/ml, n=2) in the presence or absence of HRF-2CA (300 μg/ml).
FIGS. 11A-11C show HRF dimer, but not monomer can activate mast cells. (FIG. 11A) Purified dimeric and monomeric HRF expressed in E. coli. Recombinant HRF-[…] was purified first by Histrap HP and then Sephacryl S-200 HR16/60. Two peaks were observed by Sephacryl size fractionation. The first (Fr1) and second (Fr3) peaks contained dimer and monomer, respectively, as shown by SDS-PAGE. Fr1 and Fr3 were used for mast cell stimulation. (FIG. 11B) Cells were released with 10 mM EDTA from small intestines of OVA-sensitized/OVA-challenged mice, and mononuclear cells were selected. The cells were incubated for 15 min at 37° C. with mHRF monomer or dimer (100 μg/ml), or PBS, and Kit^+ mast cell activation (LAMP-1^+) was measured by flow cytometry (n=3). (FIG. 11C) Control experiments indicate an excellent specificity of the assay for HRF multimers. HRF-2CA (2CA) was used as a monomer control (n=2 for each concentration). Note that total concentrations of the 1:9 mixture of dimer:monomer gave almost the same luminescence values as did ten-fold less concentrations of dimer.
Twenty-four hours after the last OVA challenge, mice were sacrificed and small intestines (0.5-15 cm from stomach) were collected. The intestinal tissues were opened longitudinally and washed with PBS. Then, the tissues were incubated with 10 mM EDTA-PBS for 30 min at 37° C. After incubation, the tissues were transferred to 30 ml PBS in 50 ml tubes and vigorously shaken. After washed, the cells were resuspended in 40% Percoll solution and slowly loaded on the top of 75% Percoll solution. The cells were then centrifuged (2000 rpm, 20 min) and lymphocytes were collected. The cells were once centrifuged and resuspended in Tyrode's buffer. Abs (Biotin-anti-CD4 mAb (clone RM4-5), Biotin-anti-CD8 mAb (clone 53-6.7), Biotin-anti-B220 mAb (clone RA3-6B2), Biotin-anti-CD326 mAb (clone G8.8), PE-anti-CD117 (clone 2B8), AlexaFluor647-anti-LAMP-1 mAb (clone 1D4B)) (Biolegend) were added and cells were then stimulated with OVA, anti-IgE (clone RME-1, BioLegend) and recombinant dimeric murine HRF for 15 min at 37° C. After activation, cells were washed and incubated with FITC-streptavidin (Catalog #405202, Biolegend) for 30 min at 4° C. LAMP-1 expression was detected using FACS Calibur. Data were analyzed using FlowJo software.

For assay [4], the target named is IgE on mucosal (IgE+ mMCP-1+, c-Kit+) mast cells of the small intestine of OVA-sensitized/OVA-challenged mice (mouse). Put plainly: confocal microscopy of jejunum, anti-His tag staining (data not shown).

B1: HRF-2CA-His6, a monomeric mutant of mouse HRF (protein)
chain: MIIYRDLISHDELFSDIYKIREIADGLALEVEGKMVSRTEGAIDDSLIGGNASAEGPEGEGTESTVVTGVDIVMNHHLQETSFTKEAYKKYIKDYMKSLKGKLEEQKPERVKPFMTGAAEQIKHILANFNNYQFFIGENMNPDGMVALLDYREDGVTPFMIFFKDGLEMEKAHHHHHH
Consider B1, for which the “IgE+ mMCP-1+ mast cells targeted by the His-tagged substance” value in assay [1] amounted to 64.0±2.69%. Further, the “sensitization phase of murine food allergy” value in assay [2] was “do not affect”. In assay [3] (HRF dimer 100 μg/ml), the “HRF-induced activation of mucosal mast cells” value is given as “significantly suppressed”. Besides, the “OVA-induced activation of mucosal mast cells” value in assay [3] (OVA 10 ng/ml) was “significantly suppressed”. Further, the percent of IgE+ mMCP-1+ mast cells targeted in assay [4] is 64%.
